Source: patent publication US20150093764A1 (BECTON DICKINSON, published 2015)
Substitutions are numbered along the chain they refer to. Numbers in names are those of the source.

T1: human CD88 (complement component 5a receptor 1) (human, UniProt P21730 1-350)
T1 construct: Native antigen on granulocytes of lysed human whole blood / PBMC preparations, read by flow cytometry; also called C5AR1; native CD88 antigen expressed on granulocytes
T1 chain: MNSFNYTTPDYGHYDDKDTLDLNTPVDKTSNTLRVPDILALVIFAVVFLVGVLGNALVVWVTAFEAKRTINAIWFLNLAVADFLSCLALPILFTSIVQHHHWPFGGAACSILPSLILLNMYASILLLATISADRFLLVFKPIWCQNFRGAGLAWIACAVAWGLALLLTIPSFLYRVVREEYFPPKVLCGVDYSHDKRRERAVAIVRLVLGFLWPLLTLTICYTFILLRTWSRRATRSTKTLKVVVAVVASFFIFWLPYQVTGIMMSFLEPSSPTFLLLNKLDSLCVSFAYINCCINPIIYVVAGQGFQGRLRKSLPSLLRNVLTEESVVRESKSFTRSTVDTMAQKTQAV

B1: parental rabbit anti-human CD88 mAb (hybridoma cell line CD88 clone C85-4124) (antibody, V domains shown)
VH: QSVKESEGGLFKPADTLTLTCTVSGFSVNNKGVMWVRQAPGNGLEWIGSIGISGRVTYATWAKSRSTITRDTNLNTVTLKVTSLTVADTATYFCRIGSNIWGPGTLVTVSS
VL: ELVLTQTPSSVSAAVGGTVTINCQSSQSVYNNNLLAWYQQKPGQPPKLLIYQASTLDSGVPSRFKGSGTGTHFTLTISDLECDDAATYYCQGGYNGNGIAAFGGGTEVVVDG
notes: Rabbit monoclonal antibody
B2: Variant 1 rabbit anti-human CD88 mAb, R116A in heavy chain CDR-H3 (antibody, V domains shown)
VH: B1 VH with R95A
VL: B1 VL
notes: No signal peptide limits are stated; also called first variant
B3: Variant 2 rabbit anti-human CD88 mAb, Y51A in light chain CDR-L1 (antibody, V domains shown)
VH: B1 VH
VL: B1 VL with Y30A
notes: Recombinant, made in 293F cells; also called second variant
B4: Variant 4 rabbit anti-human CD88 mAb, R116A in heavy chain and Y51F in light chain (antibody, V domains shown)
VH: B1 VH with R95A
VL: B1 VL with Y30F
notes: Recombinant double mutant, made in 293F cells; also called fourth variant
B5: Variant 3 rabbit anti-human CD88 mAb, R116A in heavy chain and Y51A in light chain (antibody, V domains shown)
VH: B1 VH with R95A
VL: B1 VL with Y30A
notes: Recombinant double mutant, made in 293F cells; also called third variant

Columns and labels:
[1] = biological target: T1, human CD88 (complement component 5a …); assay: flow cytometry on granulocytes, PE goat anti-rabbit secondary
Method: (§1) For cell surface staining with the parental rabbit anti-human CD88 mAb, PBMCs in PBS containing 2% BSA were mixed with parental rabbit anti-human CD88 mAbs at concentrations of 1 μg, 0.5 μg, 0.25 μg, 0.125 μg and 0.0625 μg as shown in FIG. 3 (A-E) and incubated for 1 hr at 4° C. The cells were washed with PBS containing 2% BSA and incubated at 4° C. for 30 minutes with BD Pharmingen PE Goat Anti-rabbit IgG (Cat No 558146). The cells were washed with PBS containing 2% BSA, and analyzed with a BD FACS Canto II Flow cytometer. Non-specific binding of the secondary anti-rabbit PE-conjugated antibody on the cells alone (primary antibody absent; FIG. 3F) and background autofluorescence by unstained cells (secondary antibody absent; FIG. 3G) served as negative controls for the assay. The % positive signal was detected.

[2] = biological target: T1, human CD88 (complement component 5a …); assay: flow cytometry on granulocytes, PE goat anti-rabbit IgG secondary
Method: as §1
The binding of the variant rabbit anti-human CD88 mAbs was assayed as for the parental mAb, and the results for four variants are shown in FIGS. 4-7. […] Panels F and G show fluorescence of the negative controls as described for the parental mAb. […] Panels F and G show fluorescence of the negative controls as described for the parental mAb. […] Panels F and G show fluorescence of the negative controls as described for the parental mAb. FIG. 7 (A-E) show the binding at concentrations of 1 ug, 0.5 ug, 0.25 ug, 0.125 ug and 0.0625 ug of a fourth variant mAb having a substitution R116A in the heavy chain and a substitution Y51F in the light chain CDRs. Panels F and G show fluorescence of the negative controls as described for the parental mAb.

Binder | binding result [1] | binding result [2]
B1 | binds | 
B2 |  | no binding
B3 |  | no binding
B4 |  | no binding
B5 |  | no binding
